Assays:
[1] = test system: Ku70/80 heterodimer (paper assigns Ku70 XRCC5, Ku80 XRCC6); assay: EMSA; conditions: Invitrogen non-radioactive EMSA kit (SYBR), 25 min at 25 C (stated for nuclear extract), 2.2-2.5% agarose; buffer, salt and pH not given
[2] = test system: Nucleolin; assay: EMSA; conditions: Invitrogen non-radioactive EMSA kit (SYBR), 25 min at 25 C (stated for nuclear extract), 2.2-2.5% agarose; buffer, salt and pH not given

IFIH1 rs13023380 A allele PCR product was tested, and the binding signal (fraction of G allele binding) [1] was 0.5 and the binding signal (fraction of G allele binding) [2] was 0.5.
